Columns and labels:
[1] = molecular target: human B-type natriuretic peptide (human); assay: sandwich CMIA, capture BNP 3-631-436 ms, hBNP 0 pg/mL (blank)
[2] = molecular target: human pro B-type natriuretic peptide (human); assay: sandwich CMIA, capture 106.3AM1, proBNP spike 6872 pg/mL, read off hBNP curve
[3] = molecular target: human B-type natriuretic peptide (human); assay: sandwich CMIA, capture 106.3 AM1, hBNP 30 pg/mL (8.67 pM)
[4] = molecular target: human B-type natriuretic peptide (human); assay: sandwich CMIA, capture BNP 3-631-436 ms, hBNP 150 pg/mL (43.3 pM)
[5] = molecular target: human B-type natriuretic peptide (human); assay: sandwich CMIA, capture 106.3 AM1, hBNP 150 pg/mL (43.3 pM)
[6] = molecular target: human B-type natriuretic peptide (human); assay: sandwich CMIA, capture BNP 3-631-436 ms, hBNP 300 pg/mL (86.6 pM)
[7] = molecular target: human pro B-type natriuretic peptide (human); assay: sandwich CMIA, capture 106.3AM1, proBNP spike 103 pg/mL, read off hBNP curve
[8] = molecular target: human B-type natriuretic peptide (human); assay: sandwich CMIA, capture BNP 3-631-436 ms, hBNP 30 pg/mL (8.67 pM)
[9] = molecular target: human pro B-type natriuretic peptide (human); assay: sandwich CMIA, capture BNP 3-631-436 ms, proBNP spike 6872 pg/mL, read off hBNP curve
[10] = molecular target: human B-type natriuretic peptide (human); assay: sandwich CMIA, capture 106.3 AM1, hBNP 0 pg/mL (blank)
[11] = molecular target: human pro B-type natriuretic peptide (human); assay: sandwich CMIA, capture 106.3AM1, proBNP spike 3436 pg/mL, read off hBNP curve
[12] = molecular target: human pro B-type natriuretic peptide (human); assay: sandwich CMIA, capture BNP 3-631-436 ms, proBNP spike 1031 pg/mL, read off hBNP curve
[13] = molecular target: human B-type natriuretic peptide (human); assay: sandwich CMIA, capture BNP 3-631-436 ms, hBNP 1000 pg/mL (288.7 pM)
[14] = molecular target: human B-type natriuretic peptide (human); assay: sandwich CMIA, capture BNP 3-631-436 ms, hBNP 2000 pg/mL (577.4 pM)
[15] = molecular target: human pro B-type natriuretic peptide (human); assay: sandwich CMIA, capture BNP 3-631-436 ms, proBNP spike 3436 pg/mL, read off hBNP curve
[16] = molecular target: human pro B-type natriuretic peptide (human); assay: sandwich CMIA, capture 106.3AM1, proBNP spike 515 pg/mL, read off hBNP curve
[17] = molecular target: human B-type natriuretic peptide (human); assay: sandwich CMIA, capture 106.3 AM1, hBNP 2000 pg/mL (577.4 pM)
[18] = molecular target: human pro B-type natriuretic peptide (human); assay: sandwich CMIA, capture 106.3AM1, proBNP spike 1031 pg/mL, read off hBNP curve
[19] = molecular target: human pro B-type natriuretic peptide (human); assay: sandwich CMIA, capture BNP 3-631-436 ms, proBNP spike 103 pg/mL, read off hBNP curve
[20] = molecular target: human B-type natriuretic peptide (human); assay: sandwich CMIA, capture 106.3 AM1, hBNP 1000 pg/mL (288.7 pM)
[21] = molecular target: human B-type natriuretic peptide (human); assay: sandwich CMIA, capture 106.3 AM1, hBNP 300 pg/mL (86.6 pM)
[22] = molecular target: human pro B-type natriuretic peptide (human); assay: sandwich CMIA, capture BNP 3-631-436 ms, proBNP spike 515 pg/mL, read off hBNP curve

human pro B-type natriuretic peptide (human), sequence (chain, as listed by the source): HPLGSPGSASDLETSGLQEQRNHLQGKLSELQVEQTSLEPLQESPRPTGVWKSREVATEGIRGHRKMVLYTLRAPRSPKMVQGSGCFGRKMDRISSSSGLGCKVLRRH
human B-type natriuretic peptide (human), sequence (peptide, as listed by the source): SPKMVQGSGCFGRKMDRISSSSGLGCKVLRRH

An RLU [1] of 803 RLU, a Readback [2] of 2830 pg/mL and a Recovery [2] of 41.2% were found for monoclonal antibody BC203 in this work. It also gave an RLU [3] of 1030 RLU, an RLU [4] of 4690 RLU and an RLU [5] of 3850 RLU. It also gave an RLU [6] of 11900 RLU, a Readback [7] of 117 pg/mL and a Recovery [7] of 114%. It also gave an RLU [8] of 1340 RLU, a Readback [9] of 895 pg/mL and a Recovery [9] of 17.9%. The RLU [10] was 768 RLU, the Readback [11] was 1370 pg/mL and the Recovery [11] was 39.7%. For the same substance, the Readback [12] was 111 pg/mL, the Recovery [12] was 14.8% and the RLU [13] was 83500 RLU. The RLU [14] was 270000 RLU, the Readback [15] was 482 pg/mL and the Recovery [15] was 19.3%. It also gave a Readback [16] of 190 pg/mL, a Recovery [16] of 36.8% and an RLU [17] of 223000 RLU. The Readback [18] was 456 pg/mL, the Recovery [18] was 44.2% and the Readback [19] was -5.3 pg/mL. The Recovery [19] was -7%, the RLU [20] was 65500 RLU and the RLU [21] was 8760 RLU. The Readback [22] was 40.8 pg/mL and the Recovery [22] was 10.9%.
